This note sets out measurements from patent publication US20230227548A1 (published 2023).

In general, EC50 refers to the concentration at which the effect is half-maximal. A high value points to lower potency in that assay.

Test [1] has as its target T1, cyno GPRC5D (cyno, UniProt Q9NZD1 1-343 (human entry)).
T1 construct: on transfected HEK293F or Daudi cells; also called cynomolgus monkey GPRC5D
T1 chain: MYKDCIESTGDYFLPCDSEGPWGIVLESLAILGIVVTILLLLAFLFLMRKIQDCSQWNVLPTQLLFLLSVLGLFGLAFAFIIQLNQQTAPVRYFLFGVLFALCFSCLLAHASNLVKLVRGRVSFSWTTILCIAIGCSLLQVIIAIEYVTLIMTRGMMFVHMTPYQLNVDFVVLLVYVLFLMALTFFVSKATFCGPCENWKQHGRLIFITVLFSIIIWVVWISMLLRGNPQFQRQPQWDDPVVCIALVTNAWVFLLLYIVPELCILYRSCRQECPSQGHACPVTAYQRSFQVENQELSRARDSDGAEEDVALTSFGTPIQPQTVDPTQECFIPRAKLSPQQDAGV
In words: FACS, cyno GPRC5D cells, 1 ug/ml.

In test [2] the target is T2, human GPRC5D (human, UniProt Q9NZD1 1-345). In words: cell-based or functional assay.
T2 sequence (Q9NZD1 whole entry): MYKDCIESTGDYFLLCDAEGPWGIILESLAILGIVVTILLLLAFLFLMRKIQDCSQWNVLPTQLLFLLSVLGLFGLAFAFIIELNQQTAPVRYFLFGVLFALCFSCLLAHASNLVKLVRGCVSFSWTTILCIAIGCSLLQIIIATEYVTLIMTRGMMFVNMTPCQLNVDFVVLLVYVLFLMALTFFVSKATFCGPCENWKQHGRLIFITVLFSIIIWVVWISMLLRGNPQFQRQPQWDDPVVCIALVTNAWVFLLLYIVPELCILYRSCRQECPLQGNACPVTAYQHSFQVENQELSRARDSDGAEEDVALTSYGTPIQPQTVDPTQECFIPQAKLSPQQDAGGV
The target of test [3] is T2, human GPRC5D. In words: FACS, MM patient MM305BM bone marrow MNCs (plasma cells). (In general: A flow cytometer gives signals particle by particle.)
Test [4] concerns the target T2, human GPRC5D. Put plainly: cell-based or functional assay. The source holds these as a separate data set.
In test [5] the target is T2, human GPRC5D. In words: cell-based or functional assay. The source holds these as a separate data set.
The target of test [6] is T2, human GPRC5D. Put plainly: FACS, MM patient MM303BM bone marrow MNCs (plasma cells).
The target in test [7] is T1, cyno GPRC5D. Put plainly: cell-based or functional assay.

Where a chain is given by its changes, count along the chain named. Numbers in names are those of the source.

B1: GC5B163 (antibody, V domains shown)
VH: EVQLVQSGAEVKKPGESLKISCKGSGYSFTSYWIGWVRQMPGKGLEWMGIIYPGDSDTRYSPSFQGQVTISADKSISTAYLQWSSLKASDTAMYYCARVYSFGGRHKALFDYWGQGTLVTVSS
VL: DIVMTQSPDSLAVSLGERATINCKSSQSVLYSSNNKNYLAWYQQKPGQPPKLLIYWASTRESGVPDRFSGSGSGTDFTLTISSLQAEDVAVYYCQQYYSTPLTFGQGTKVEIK
B1: the MFI with cyno GPRC5D [1] is 22000.

B2: GC5B252 (antibody, V domains shown)
VH: QVQLVQSGAEVKKPGSSVKVSCKASGGTFSSYGISWVRQAPGQGLEWMGGIIPIFGNINYAQKFQGRVTITADESTSTAYMELSSLRSEDTAVYYCARVSRRFKRFAYYFDYWGQGTLVTVSS
VL: EIVLTQSPATLSLSPGERATLSCRASQSVSSYLAWYQQKPGQAPRLLIYDASNRATGIPARFSGSGSGTDFTLTISSLEPEDFAVYYCQQRSNWPLTFGQGTKVEIK
B2 came in with an MFI with cyno GPRC5D [1] of 63300.

B3: GCDB32 (bispecific antibody, IgG4, V domains shown)
VH 1: EVQLVESGGGLVQPGGSLRLSCAASGFTFNTYAMNWVRQAPGKGLEWVARIRSKYNNYATYYAASVKGRFTISRDDSKNSLYLQMNSLKTEDTAVYYCARHGNFGNSYVSWFAYWGQGTLVTVSS
VL 1: QTVVTQEPSLTVSPGGTVTLTCRSSTGAVTTSNYANWVQQKPGQAPRGLIGGTNKRAPGTPARFSGSLLGGKAALTLSGVQPEDEAEYYCALWYSNLWVFGGGTKLTVL
VH 2: not shown
VL 2: not shown
notes: IgG4-PAA by Fab arm exchange; first VH/VL = CD3B219 arm (IgG4 S228P, L234A, L235A, F405L, R409K); also called GC5B81 x CD3B219
For the molecule B3, in the test with human GPRC5D [2], the “T-cell redirection cytotoxicity EC50, human GPRC5D HEK cells” value is 0.04 nM. In the test with human GPRC5D [3], it took 70.4 nM to reach a half-maximal effect (EC50). Besides, in the test with human GPRC5D [4], the “T-cell mediated cytotoxicity EC50, H929 (n = 5)” value came to 0.39 nM and the “T-cell mediated cytotoxicity EC50, MM1R (n = 3)” value came to 0.12 nM. In the test with human GPRC5D [5], the “T-cell mediated cytotoxicity EC50, H929 cells” value was 0.45 nM; the “T-cell mediated cytotoxicity EC50, LP-1” value stood at 1.02 nM; the “T-cell mediated cytotoxicity EC50, MM1R” value was 0.04 nM; the “T-cell mediated cytotoxicity EC50, OPM2” value was determined as 0.98 nM. In the test with human GPRC5D [6], the midpoint of the response, the EC50, lay at 16.1 nM.

B4: GCDB72 (bispecific antibody, IgG4, V domains shown)
VH 1: B3 VH 1
VL 1: B3 VL 1
VH 2: QVQLVQSGAEVKKPGASVKVSCKASGYSFTGYTMNWVRQAPGQGLEWMGLINPYNSDTNYAQKLQGRVTMTTDTSTSTAYMELRSLRSDDTAVYYCARVALRVALDYWGQGTLVTVSS
VL 2: DIQMTQSPSSLSASVGDRVTITCKASQNVATHVGWYQQKPGKAPKRLIYSASYRYSGVPSRFSGSGSGTEFTLTISNLQPEDFATYYCQQYNRYPYTFGQGTKLEIK
B4: in the test with cyno GPRC5D [7], the “T-cell redirection cytotoxicity EC50, cyno GPRC5D HEK cells” value stood at 3.41 nM.

B5: GCDB53 (bispecific antibody, IgG4, V domains shown)
VH 1: B3 VH 1
VL 1: B3 VL 1
VH 2: not shown
VL 2: not shown
notes: IgG4-PAA; first VH/VL = CD3B219 arm (adds F405L, R409K), second = GC5B465 arm; also called GC5B465 x CD3B219
On to B5, for which the “T-cell redirection cytotoxicity EC50, cyno GPRC5D HEK cells” value with cyno GPRC5D [7] stood at 0.36 nM. Moreover, the “T-cell redirection cytotoxicity EC50, human GPRC5D HEK cells” value in the test with human GPRC5D [2] came to 0.08 nM. Further, a half-maximal response with human GPRC5D [3] (EC50) required 10.2 nM. For the same molecule, in the test with human GPRC5D [5], the “T-cell mediated cytotoxicity EC50, H929 cells” value worked out at 0.69 nM; the “T-cell mediated cytotoxicity EC50, LP-1” value amounted to 1.58 nM; the “T-cell mediated cytotoxicity EC50, MM1R” value came out at 0.28 nM; the “T-cell mediated cytotoxicity EC50, OPM2” value stood at 2.83 nM. This molecule came in with an EC50 in the test with human GPRC5D [6] of 3.98 nM.

B6: GCDB61 (bispecific antibody, IgG4, V domains shown)
VH 1: B3 VH 1
VL 1: B3 VL 1
VH 2: B1 VH with W33F, D55K
VL 2: B2 VL
notes: IgG4-PAA; first VH/VL = CD3B219 arm (adds F405L, R409K), second = GC5B483 arm; also called GC5B483 x CD3B219
On to B6, for which the “T-cell redirection cytotoxicity EC50, cyno GPRC5D HEK cells” value in the test with cyno GPRC5D [7] was 1.22 nM. Moreover, the “T-cell redirection cytotoxicity EC50, human GPRC5D HEK cells” value with human GPRC5D [2] stood at 0.03 nM. In the test with human GPRC5D [3], this molecule showed an EC50 of 6.93 nM. In the test with human GPRC5D [5], the “T-cell mediated cytotoxicity EC50, H929 cells” value was 0.39 nM; the “T-cell mediated cytotoxicity EC50, LP-1” value came out at 1.67 nM; the “T-cell mediated cytotoxicity EC50, MM1R” value was determined as 0.06 nM; the “T-cell mediated cytotoxicity EC50, OPM2” value turned out to be 1.46 nM. Also, in the test with human GPRC5D [6], the concentration for a half-maximal effect (EC50) is 5.53 nM.
